B1: Probable E3 ubiquitin-protein ligase MID2 (Homo sapiens), Q9UJV3 (parent)
chain: MGESPASVVLNASGGLFSLKMETLESELTCPICLELFEDPLLLPCAHSLCFSCAHRILVSSCSSGESIEPITAFQCPTCRYVISLNHRGLDGLKRNVTLQNIIDRFQKASVSGPNSPSESRRERTYRPTTAMSSERIACQFCEQDPPRDAVKTCITCEVSYCDRCLRATHPNKKPFTSHRLVEPVPDTHLRGITCLDHENEKVNMYCVSDDQLICALCKLVGRHRDHQVASLNDRFEKLKQTLEMNLTNLVKRNSELENQMAKLIQICQQVEVNTAMHEAKLMEECDELVEIIQQRKQMIAVKIKETKVMKLRKLAQQVANCRQCLERSTVLINQAEHILKENDQARFLQSAKNIAERVAMATASSQVLIPDINFNDAFENFALDFSREKKLLEGLDYLTAPNPPSIREELCTASHDTITVHWISDDEFSISSYELQYTIFTGQANFISKSWCSWGLWPEIRKCKEAVSCSRLAGAPRGLYNSVDSWMIVPNIKQNHYTVHGLQSGTRYIFIVKAINQAGSRNSEPTRLKTNSQPFKLDPKMTHKKLKISNDGLQMEKDESSLKKSHTPERFSGTGCYGAAGNIFIDSGCHYWEVVMGSSTWYAIGIAYKSAPKNEWIGKNASSWVFSRCNSNFVVRHNNKEMLVDVPPHLKRLGVLLDYDNNMLSFYDPANSLHLHTFDVTFILPVCPTFTIWNKSLMILSGLPAPDFIDYPERQECNCRPQESPYVSGMKTCH

Here are results for one variant from IntAct's records for PubMed 35266954.

The assay covers variants of B1. Particulars: with lrrk2_human LRRK2, Q5S007.
lrrk2_human LRRK2, Q5S007, sequence (Q5S007 whole entry): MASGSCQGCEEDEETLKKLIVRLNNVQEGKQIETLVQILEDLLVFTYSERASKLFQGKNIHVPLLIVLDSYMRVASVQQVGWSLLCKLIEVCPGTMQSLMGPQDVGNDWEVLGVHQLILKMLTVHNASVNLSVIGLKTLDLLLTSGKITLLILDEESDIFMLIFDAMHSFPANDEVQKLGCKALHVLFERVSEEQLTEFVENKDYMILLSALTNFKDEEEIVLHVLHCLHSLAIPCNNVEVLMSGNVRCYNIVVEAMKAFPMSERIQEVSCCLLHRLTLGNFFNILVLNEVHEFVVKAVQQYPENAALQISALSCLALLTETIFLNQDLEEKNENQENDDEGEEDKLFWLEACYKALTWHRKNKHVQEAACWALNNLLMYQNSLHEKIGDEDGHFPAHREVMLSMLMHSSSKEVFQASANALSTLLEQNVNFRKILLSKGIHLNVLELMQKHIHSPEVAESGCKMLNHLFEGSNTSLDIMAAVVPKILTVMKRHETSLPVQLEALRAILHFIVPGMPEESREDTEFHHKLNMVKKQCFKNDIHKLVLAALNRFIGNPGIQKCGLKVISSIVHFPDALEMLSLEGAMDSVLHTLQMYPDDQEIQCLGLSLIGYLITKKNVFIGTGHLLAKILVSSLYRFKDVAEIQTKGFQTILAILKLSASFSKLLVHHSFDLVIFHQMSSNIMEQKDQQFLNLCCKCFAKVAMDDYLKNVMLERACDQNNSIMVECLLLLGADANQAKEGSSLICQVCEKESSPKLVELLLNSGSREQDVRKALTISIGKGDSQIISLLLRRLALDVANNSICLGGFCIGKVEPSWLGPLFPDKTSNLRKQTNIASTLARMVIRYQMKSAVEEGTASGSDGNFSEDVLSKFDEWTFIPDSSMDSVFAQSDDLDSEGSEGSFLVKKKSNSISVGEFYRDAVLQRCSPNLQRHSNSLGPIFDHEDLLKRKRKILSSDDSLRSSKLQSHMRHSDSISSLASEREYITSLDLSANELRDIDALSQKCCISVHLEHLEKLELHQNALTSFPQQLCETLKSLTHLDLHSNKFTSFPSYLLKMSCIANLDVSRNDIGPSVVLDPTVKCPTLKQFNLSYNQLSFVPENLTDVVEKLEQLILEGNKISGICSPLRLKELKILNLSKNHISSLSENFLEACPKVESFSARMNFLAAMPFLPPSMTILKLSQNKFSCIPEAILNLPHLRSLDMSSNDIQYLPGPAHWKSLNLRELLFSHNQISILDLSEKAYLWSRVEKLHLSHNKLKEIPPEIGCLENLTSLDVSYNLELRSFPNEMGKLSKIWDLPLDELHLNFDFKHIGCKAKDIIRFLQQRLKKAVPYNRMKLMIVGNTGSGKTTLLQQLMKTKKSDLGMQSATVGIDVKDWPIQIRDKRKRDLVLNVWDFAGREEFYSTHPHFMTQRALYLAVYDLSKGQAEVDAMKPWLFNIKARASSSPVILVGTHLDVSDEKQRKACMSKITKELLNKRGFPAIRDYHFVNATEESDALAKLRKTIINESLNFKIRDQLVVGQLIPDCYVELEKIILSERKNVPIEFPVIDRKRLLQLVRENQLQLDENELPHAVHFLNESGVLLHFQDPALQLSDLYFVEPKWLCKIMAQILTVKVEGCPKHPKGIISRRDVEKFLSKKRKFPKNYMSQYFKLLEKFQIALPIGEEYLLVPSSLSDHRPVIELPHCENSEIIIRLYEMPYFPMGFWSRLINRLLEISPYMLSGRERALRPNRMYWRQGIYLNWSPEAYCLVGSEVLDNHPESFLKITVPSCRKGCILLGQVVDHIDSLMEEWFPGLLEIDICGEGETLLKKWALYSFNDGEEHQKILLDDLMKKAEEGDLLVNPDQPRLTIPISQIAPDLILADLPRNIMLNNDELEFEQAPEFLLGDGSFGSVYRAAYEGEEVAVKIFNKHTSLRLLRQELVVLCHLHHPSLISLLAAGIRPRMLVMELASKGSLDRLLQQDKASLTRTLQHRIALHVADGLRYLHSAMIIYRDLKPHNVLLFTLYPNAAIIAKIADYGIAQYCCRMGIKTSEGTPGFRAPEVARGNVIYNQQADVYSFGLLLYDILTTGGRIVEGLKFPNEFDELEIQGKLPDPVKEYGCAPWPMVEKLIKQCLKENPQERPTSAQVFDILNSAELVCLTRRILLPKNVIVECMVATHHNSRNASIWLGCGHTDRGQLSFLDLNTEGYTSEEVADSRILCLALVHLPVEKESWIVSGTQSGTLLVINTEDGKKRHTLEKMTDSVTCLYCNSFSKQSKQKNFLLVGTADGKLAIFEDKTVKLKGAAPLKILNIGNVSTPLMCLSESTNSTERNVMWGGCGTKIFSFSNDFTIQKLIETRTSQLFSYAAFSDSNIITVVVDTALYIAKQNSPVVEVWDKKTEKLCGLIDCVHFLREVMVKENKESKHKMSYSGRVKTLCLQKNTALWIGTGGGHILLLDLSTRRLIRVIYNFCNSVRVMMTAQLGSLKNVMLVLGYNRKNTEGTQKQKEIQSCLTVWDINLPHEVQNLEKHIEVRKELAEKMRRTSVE
Consider F348A;L349A;Q350A;L396A;D397A;Y398A, for which the “effect of a mutation on the interaction” value was “with no effect”.
